Experimental data from patent US20240408167A1, “COMPOSITION FOR TREATING OCULAR DISEASES CONTAINING PEPTIDE” (Encuragen Inc., priority 2023, published 2024).

Tests used:
[1] = Stability of eye drop formulations stored at 40° C., RP-HPLC; type: physicochemical
Protocol: Eye drops using (PEG)-BHD1028 were prepared by setting eye characteristics, pH, osmolarity, and viscosity as important parameters. To adjust the above parameters, various reagents and substances were added to the test formulation, which was stored at 40° C. to confirm the stability of the formulation. In addition, the reagents used in the target preparation were mainly determined by considering the stability of the drug and the suitability of the manufacturing process. The stability of the formulation was determined based on the RP-HPLC analysis data. The shelf life was set as the period before a single impurity reached 1.0 area %, reflecting the mean kinetic temperature (MKT).
The shelf life was calculated based on the stability data reflecting the mean kinetic temperature (MKT). […] Based on this calculation, the lifespan was calculated by multiplying the number of days immediately before the area % of a single impurity reached 1.0% by a factor of 5. The target shelf life was set at 6 months or longer at 25° C., and the stability of the trehalose-only formulation is expected to have a shelf life of about 7 months.

rabbit DED model = experiment: Tear film break-up time (TBUT), rabbit DED model; type: in vivo
Text: The rabbit DED model was induced by locally administrating 0.1% benzalkoniumchloride (BAC) drops (Sigma, St. Louis, MO, USA) twice a day (8 a.m. and 4 p.m.). Before the BAC treatment, the control group (baseline, naive) underwent standard dry eye clinical tests such as the Schirmer tear test (STT), TBUT, and corneal staining score (CSS) test. […] The test substance was locally applied bis in die (BID) to both eyes.
TBUT is the time elapsed between the last blink and the first appearance of fluorescein decomposition, and it is an indicator of tear film stability. […] The measurement was repeated three times to obtain an average value.
Tear film instability is an important pathological characteristic of DED and the most common indicator of tear quality.

[2] = Stability according to pH, HPLC residual amount at 40±2° C.; type: physicochemical; conditions: for Residual amount: 40±2° C.
Protocol: To evaluate the stability of eye drops according to pH, a 10 mM pH buffer [10 mM sodium phosphate buffer+0.02% sodium azide (pH 5.5, pH 6.0, pH 6.5, pH 7.0) or a 10 mM PBS+WELGENE fresh media 10×PBS (pH 7.4)] was mixed with (PEG)-BHD1028 and the resulting mixture was incubated at 40±2° C., and then the stability was evaluated through an HPLC analysis. As a result of the evaluation, there was no significant difference in the residual amount between the formulation prepared at pH 6.5, which was set as the target pH of the eye drops, and the formulation prepared at 7.0, which was the average pH of the eyes, as shown in Table 4 below.

BALB/3T3 clone A31 cells = experiment: cells; type: cell-based
Protocol: To evaluate the phototoxicity of (PEG)-BHD1028, the potential phototoxicity of (PEG)-BHD1028 was measured in the BALB/3T3 clone A31 cells after UV exposure. The test substance and the positive control group (chlorpromazine hydrochloride; CPZ) were dissolved in a Hank's Balanced Salt Solution (HBSS) and then diluted with a Hank's Balanced Salt Solution (HBSS). The cells were trypsinized and counted. Thereafter, 1×10^4 cells per well were seeded in a 96-well plate and cultured for approximately 24 hours before treating the test samples. One hour after the sample treatment, the plate was irradiated with a UV irradiation system (UVA, 365 nm). After UV irradiation, the plate was incubated for 24 hours. The cell viability of the cultured cells was confirmed by measuring the absorbance at 540 nm using the neutral red staining method.

CD11b+ monocytes = CD11b+ monocytes by flow cytometry, EDE mouse model; type: in vivo; conditions: for geometric mean number of CD11b+ monocytes: cornea
Protocol: The cornea, conjunctiva, and each tissue required for analysis were excised with scissors, incised, and shaken with 0.5 mg/mL collagenase type D at 37° C. for 1 hour. After pulverizing the tissue, the resulting mixture was passed through a cell strainer, centrifuged, and resuspended in phosphate-buffered saline containing 1% bovine serum albumin.
In DED, corneal barrier destruction and epithelial cell loss are accompanied by bone marrow and T cell infiltration. Activated T lymphocytes are the primary producers of Th-1 cytokines and interferon (IFN)-γ, which promote cell death at the ocular surface. To evaluate the anti-inflammatory effect of (PEG)-BHD1028 in the EDE mouse model, immune cells that play the role of inflammatory cell surface markers were quantified by flow cytometry with one animal per group.

Substance: NH2-Tyr-Tyr-Phe-Ala-Tyr-His-Pro-Asn-Ile-Pro-Gly-Leu-Tyr-Tyr-Phe-COOH (H-YYFAYHPNIPGLYYF-OH; also: PEGylated, site not given here (mPEG), acetate salt) [(PEG)-BHD1028]
- formulation stability ([1]; eye drops with sodium EDTA (0.5%), 40° C. for 25 days): stability was maintained
- formulation stability (impurities) ([1]; eye drops with sodium bisulfate (0.03%), Day 7 at 40° C.): impurities rapidly increased
- impurities ([1]; eye drops with sodium hyaluronate 0.1%, 40° C. for 37 days, all impurities): less than 1.0 area %
- formulation stability and pH, water versus PBS as diluent ([1]; eye drops, between the two formulations): no significant difference in stability data and pH
- formulation stability ([1]; formulations including PEG (PEG400, PEG5000, PEG3350) as osmotic reagent): considerably decomposed
- formulation stability ([1]; formulations including salts such as KCl and NaCl, Day 6 at 40° C.): considerably decomposed
- formulation stability ([1]; mannitol, trehalose, or a combination of mannitol and trehalose as osmotic reagent): stable
- TBUT (rabbit DED model; rabbit DED, 0.1% BID, Day 5): 10.64 ± 0.99 s
- TBUT (rabbit DED model; rabbit DED, 0.1% BID, Day 10): 17.88 ± 1.91 s
- TBUT (rabbit DED model; rabbit DED, 0.2% BID, Day 5): 15.68 ± 1.58 s
- TBUT (rabbit DED model; rabbit DED, 0.2% BID, Day 10): 17.72 ± 1.74 s
- TBUT (rabbit DED model; rabbit DED, 0.4% BID, Day 5): 19.88 ± 1.42 s
- TBUT (rabbit DED model; rabbit DED, 0.4% BID, Day 10): 22.71 ± 1.87 s
- TBUT (rabbit DED model; rabbit, 0.1% group, Baseline (before BAC treatment)): 49.67 ± 3.17 s
- TBUT (rabbit DED model; rabbit, 0.1% group, Day 0 (EDE), before treatment): 8.50 ± 1.0 s
- TBUT (rabbit DED model; rabbit, 0.2% group, Baseline (before BAC treatment)): 49.83 ± 2.10 s
- TBUT (rabbit DED model; rabbit, 0.2% group, Day 0 (EDE), before treatment): 8.89 ± 1.34 s
- TBUT (rabbit DED model; rabbit, 0.4% group, Baseline (before BAC treatment)): 53.00 ± 2.29 s
- TBUT (rabbit DED model; rabbit, 0.4% group, Day 0 (EDE), before treatment): 8.22 ± 1.16 s
- Residual amount ([2]; PBS (pH 7.4), Day 0): 100.0%
- Residual amount ([2]; PBS (pH 7.4), Day 1): 97.1%
- Residual amount ([2]; PBS (pH 7.4), Day 3): 92.3%
- Residual amount ([2]; PBS (pH 7.4), Day 7): 89.9%
- Residual amount ([2]; pH 5.5, Day 0): 100.0%
- Residual amount ([2]; pH 5.5, Day 1): 98.4%
- Residual amount ([2]; pH 5.5, Day 3): 97.2%
- Residual amount ([2]; pH 5.5, Day 7): 96.6%
- Residual amount ([2]; pH 6.0, Day 0): 100.0%
- Residual amount ([2]; pH 6.0, Day 1): 99.8%
- Residual amount ([2]; pH 6.0, Day 3): 99.0%
- Residual amount ([2]; pH 6.0, Day 7): 98.1%
- Residual amount ([2]; pH 6.5, Day 0): 100.0%
- Residual amount ([2]; pH 6.5, Day 1): 99.7%
- Residual amount ([2]; pH 6.5, Day 3): 98.7%
- Residual amount ([2]; pH 6.5, Day 7): 97.3%
- Residual amount ([2]; pH 7.0, Day 0): 100.0%
- Residual amount ([2]; pH 7.0, Day 1): 99.2%
- Residual amount ([2]; pH 7.0, Day 3): 98.7%
- Residual amount ([2]; pH 7.0, Day 7): 94.9%
- most stable pH within the pH range of normal tears ([2]; pH range 6.5 to 7.6): 6.5
- MPE (mean photo effect) (BALB/3T3 clone A31 cells): 0.003
- PIF (photo irradiation factor) (BALB/3T3 clone A31 cells): 1.000
- phototoxicity classification by PIF and MPE (BALB/3T3 clone A31 cells): non-phototoxic
- IC50 UV (+Irr) (BALB/3T3 clone A31 cells; BALB/3T3 clone A31 cells, UVA 365 nm irradiation, neutral red): >1000 µg/mL
- IC50 UV (−Irr) (BALB/3T3 clone A31 cells; BALB/3T3 clone A31 cells, without UV irradiation, neutral red): >1000 µg/mL
- number of CD11b+ monocytes (CD11b+ monocytes; conjunctiva, 0.001%): 352.09
- number of CD11b+ monocytes (CD11b+ monocytes; conjunctiva, 0.01%): 330.48
- number of CD11b+ monocytes (CD11b+ monocytes; conjunctiva, 0.1%): 36.35
- geometric mean number of CD11b+ monocytes (CD11b+ monocytes; 0.001%): 178.06
- geometric mean number of CD11b+ monocytes (CD11b+ monocytes; 0.01%): 131.59
- geometric mean number of CD11b+ monocytes (CD11b+ monocytes; 0.1%): 126.25
- number of CD11b+ monocytes (CD11b+ monocytes; lacrimal gland, 0.001%): 84
- number of CD11b+ monocytes (CD11b+ monocytes; lacrimal gland, 0.01%): 74.60
- number of CD11b+ monocytes (CD11b+ monocytes; lacrimal gland, 0.1%): 60.48
